Results taken from the supplement of paper PMC12764529.
± gives the half width of the 95% confidence interval.

Legend:
[1] = folding stability dG unfold from chymotrypsin proteolysis; higher = more stable
How it was run: (§1)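 K50 was inferred by Bayesian fitting of sequencing counts obtained after protease digestion of designed mini-proteins. Unfolding free energy was derived by comparison with a sequence-predicted unfolded-state K50 and a shared folded-state K50, for each protease or both combined. The mini-proteins were under 80 residues, had no cysteine, were carried in a PA-tagged cDNA display construct, and were kept only if AlphaFold2 dimer inter-PAE exceeded 15.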

[2] = folding stability dG unfold from trypsin proteolysis; higher = more stable
How it was run: as §1

[3] = folding stability dG unfold (combined trypsin and chymotrypsin); higher = more stable
How it was run: as §1

Sequence	folding stability dG unfold [1] [kcal/mol]	folding stability dG unfold [2] [kcal/mol]	folding stability dG unfold [3] [kcal/mol]
SAGGKKKPKIRIKVEIDGKTVEVEVESPEELVEALKELGFEVEVVEVTEKTVVIKLKDGKLIRIEKESAGGS [r8_365_TrROS_Hall]	2.06 ± 0.026	1.91 ± 0.072	2.02 ± 0.047
SAGGKKFYVEVKINLKDKTIYLIKEVKPGNLEKLIKEIEKKGIKEAGIDEIKIFPKDGYIEIKGGEKSAGGS [r8_219_TrMRF]	1.18 ± 0.08	0.279 ± 0.061	0.801 ± 0.1
SNELAKEIADELKKQGYEVKDVEVQYSPDDGMVEIEARIRHPDDGRQYRIDIHVNPDDGKITQVKIEPRPSA [r9_814_TrROS]	0.644 ± 0.17	0.857 ± 0.028	0.825 ± 0.17
SAGGSAGGMIVTTTFLPGNLKVVNVTTTYETTDPSGTTTSTTTTSTTIEYIPPVPVDINNPLLISAGGSAGG [r6_920_JUSTAS]	1.24 ± 0.038	1.41 ± 0.071	1.41 ± 0.14
SAGGSAGGSAGGMIVETLGDSPETVTLVKLPNKPIIRTYDPVTGTWTIYDPDTNKIYEISAGGSAGGSAGGS [r10_434_JUSTAS]	0.872 ± 0.14	1.39 ± 0.052	1.26 ± 0.098
SAGGSAGGSKPRPIDIMFPNPENGRPVMIRIEYTKDKIKAEWYFGNKPQEKKIDDPEDLLEFISAGGSAGGS [r12_299_TrROS]	1.08 ± 0.1	0.0886 ± 0.055	0.754 ± 0.096
SAGGSAGGMVIPFILPGSEFEEEEAIERLLELIETARELNPDTPIIANPLILEVPPPPTETELGSAGGSAGG [r6_728_TrMRF]	0.538 ± 0.13	1.36 ± 0.099	1.22 ± 0.28
SAMTIEEAIEKGKIGAIVKVEVELPNGGKIEIEIFIESESLEEALEKIKAFFEALNLKVKIIEVKVFPVSAG [r14_854_TrMRF]	2.87 ± 0.1	3.4 ± 0.19	3.09 ± 0.36
SKYRILIHTPNPGMPPEEIIDELEEPGFKDVEVVDSPSELKELPPNYDIVIMFHNGQFQISIFPPEELDKSA [r9_750_TrROS]	1.4 ± 0.31	0.316 ± 0.14	0.937 ± 0.2
SAGGSAKKKKVTITIEVVKNKETGEYLVRIKIKVDGKEYEIVMSEDELKALIDAGVKIEKIEVYPRSAGGSA [r15_783_TrROS_Hall]	2.99 ± 0.082	1.6 ± 0.017	2.59 ± 0.1
SAGGSAGGSPVVLYEVDPSTNSVTLTVEVLHPDGTPLRKEYTTNGDPLEAALRFAKAVLEEAGSAGGSAGGS [r20_33_TrMRF]	0.813 ± 0.17	0.407 ± 0.21	0.699 ± 0.12
SAGGSAGGKLSIPIHIPGLTPEEARKIVKYFAAAGIPPDNVTIEVQPVPPVPPMTPEEMEKHNKSAGGSAGG [r6_246_TrROS]	0.988 ± 0.13	-0.288 ± 0.24	0.614 ± 0.2
SAMRPGDPWKPVEERKIPIRNPNNGKEIEIEVYRFKDDGMYMVSIHFPDGKSIQFMVPPGDVEEIIEQISAG [r14_240_TrROS]	3.171 ± 0.016	1.29 ± 0.037	2.8 ± 0.058
SAGGSAGGSANGFVFKIKEVFEVDGKLFLKVTGTDKEYIIPDNAIIEPLEDDSVKVIILPPESAGGSAGGSA [r18_468_TrMRF]	1.35 ± 0.086	1.19 ± 0.021	1.31 ± 0.061
SAGGSAGGSAMIETTVSFDPSTGTVTTTTTYTDPNGGYTKSSTTVTPVPTPAPPPPAAPNRVSAGGSAGGSA [r18_361_JUSTAS]	0.582 ± 0.067	0.409 ± 0.029	0.551 ± 0.094
SAIKIEEIKDVNPENKNIRIKIEMPGGPHEIPIPAKSEMDVEEALDLILDWFERHFPPGHKMRIEEIEISAG [r14_422_TrROS]	-0.0828 ± 0.13	0.886 ± 0.091	0.341 ± 0.1
SAGGNMFMIKIDDPDALKELANEPGISSVHYNPNNGRYTVMFNFPDGMRTFEIDAEDGKIKEIEPFPSAGGS [r8_251_TrROS]	1.82 ± 0.037	1.58 ± 0.034	1.79 ± 0.039
SAGGSAGGSAMEINEIVKETAKKGKNLTITVKLPDGSTVTITVTPDEDVPEDLEVLEVTVKSAGGSAGGSAG [r3_421_JUSTAS]	1.78 ± 0.038	0.344 ± 0.05	1.4 ± 0.056
SAGGRKITINWNPNSGEIKVKIIWPDGEKEELPIPVPEGHDSPRQFADELKDNAQERFGEPVKIEITSAGGS [r8_166_TrROS]	-0.793 ± 0.21	-0.223 ± 0.15	-0.492 ± 0.4
GENVPPKTVTVSAPVDPTTGRVTVNPGNTTVSISLPDGADVTLSFSTSMSEEEQLAFVEKEAAALNAALAAS [r1_25_JUSTAS]	0.443 ± 0.055	1.64 ± 0.027	1.18 ± 0.048
SMIVTEEVSYDPSTNTRTITKTVYEKDENGNLVPVETEVVVEPVEEPPPYVPVIKVPPSNKTPEDRVKVLSA [r9_888_JUSTAS]	1.02 ± 0.27	-0.035 ± 0.23	0.781 ± 0.35

Sequence	folding stability dG unfold [1] [kcal/mol]	folding stability dG unfold [2] [kcal/mol]	folding stability dG unfold [3] [kcal/mol]
SAGGSAGGSAMPEEVKLRVVKVKVKEVEVETDENGEKRTRVKAEVVEEREITLPKEELEKLSAGGSAGGSAG [r3_121_TrROS_Hall]	1.04 ± 0.074	2.35 ± 0.18	1.76 ± 0.14
SAGGSAGGSAPKVEPHPVTFTFENAVVTVTRYRVPDEDGNPLYFTSVSVFFLDKDGKPGFVFPSAGGSAGGS [r20_13_TrMRF]	4.82 ± 0.069	3.28 ± 0.076	4.35 ± 0.18
SAGGSAMRIKVTLENGEEIEIEIEESMTEEEVKELAEELAKKLAEELGIKEVKVEVEEVELPEEEESAGGSA [r15_33_TrROS_Hall]	2.96 ± 0.054	1.68 ± 0.11	2.53 ± 0.11
SAGGSVTLSAEFTLPDGSRVRLTVEVLPDGTLRVSAEVEAVPLVPPVRVSRLPDGSLVSDPLGVPLVLSAGG [r13_151_TrMRF]	1.31 ± 0.11	1.82 ± 0.046	1.57 ± 0.15
SAGGDLEAKPFEITFVIKAKPFPTPDGRLVETPEKVFKLKVLVVRGPNETRLFVFDEDGNLLFTSNLSAGGS [r16_92_TrMRF]	3.888 ± 0.022	2.37 ± 0.051	3.39 ± 0.064
SAGGMKVTVYPDGTVSVEIEPGQTLTVSLGDKEYTVTAEYPSITITTTPVPVPPPAVPPENVDPSLVSAGGS [r16_600_JUSTAS]	0.984 ± 0.051	1.54 ± 0.11	1.23 ± 0.15
SAGGSSIKVTITDKNGNEYEIEIPSSLSLEEAKEKVKEYLEKKGYKVESITVENLPPGEAEIKVLKSAGGSA [r2_148_JUSTAS]	0.465 ± 0.21	0.0509 ± 0.059	0.423 ± 0.29
SAGGGITITLPDGSVIEIEPVSTFTNEDGQPVTKIKATLTDPVTGTSVEADIYLFPDGGVKIDLKPGSAGGS [r16_651_TrMRF]	2.35 ± 0.031	2.3 ± 0.051	2.35 ± 0.062
SAGGTIYIFIPGLTAEEILKFIAEEFPGHENVTIFWPKGYYVKITVDNGNIKIDKVQPMRPMPPGDPSAGGS [r8_225_TrROS]	3.31 ± 0.026	2.52 ± 0.073	2.99 ± 0.084
SKPDAPKIVELLRELFPDLEITSVSYDPETGTYTVTFPDGVVAEVHVDPNGNVHIVLRTPTSERTFTLPVSA [r9_304_TrMRF]	2.38 ± 0.043	2.68 ± 0.1	2.55 ± 0.07
SAGGSAGGMKEGETRTITFWANVKPGDLEKIANHMMKFGWPIKKVDIKRHPENGMVRVSITIRKSAGGSAGG [r6_514_TrROS]	2.56 ± 0.045	2.21 ± 0.025	2.43 ± 0.052
SAGGMYEIVDLLSVEPDPETGALTRTFLLRDPDSDRFLVAEVRIDPENPDRVEIRLYDEDGNLIAEFPSAGG [r13_658_TrMRF]	4.148 ± 0.034	3.36 ± 0.083	3.93 ± 0.045
SAGGPGFQRYPYTLELPDGRKITVEYWRMGDNPYVQIDIRHDGEPLGTIHVPVPSPDQIEDAAKDIISAGGS [r16_55_TrROS]	1.78 ± 0.054	1.18 ± 0.057	1.58 ± 0.072
SAGGSAGGSAMKVLVTVTLTSPDGTKTTLTEEADPAELKGVLEAALPWTVETVTVYPAEELLSAGGSAGGSA [r18_107_JUSTAS]	0.509 ± 0.12	1.35 ± 0.051	1.04 ± 0.089
SAGGSAGGSAMNRYRILLLDPENGKPLVFELPGNMTPEEAKEAAEELAERFGVTVVAIEGFPSAGGSAGGSA [r18_322_TrMRF]	4.362 ± 0.021	3.18 ± 0.044	4.11 ± 0.057
KRVTIMFNFPPGKPLPLSELAGFARNSGGEVKIQIYNPDDGKWQEITFPGGKIDDVEMFPDGWMVMITVKGS [r1_238_TrROS]	2.83 ± 0.089	2.09 ± 0.061	2.52 ± 0.15
SAGKITITVEKNEDGELTVTIRIEKDGKPIEEITFESEEEALEAAKKLAEELKKKYPDLKIEVEIVPRPSAG [r5_383_TrROS_Hall]	2.65 ± 0.22	3.47 ± 0.27	3.53 ± 0.64
SASLEEILASLGYSVSRSVLPNGTEVVTARHPDGTTVTVTVTPDGTTVTVTPPDGTVTTLSVEDVRRALSAG [r14_578_JUSTAS]	3.118 ± 0.017	2.97 ± 0.045	3.03 ± 0.05
SGMTIKILEVDFNPLGEEDEKATITLKAEIGGEEVELKIEVYRRPDGSAIAKITLILPGSGEPFEITADISA [r9_241_TrMRF]	4.16 ± 0.13	2.61 ± 0.11	3.91 ± 0.17
SAGGSAGAPLVLAEVELDPETGEVRIRVYDPVTGKVYEYTTPGSLADAIREIERETGIPITEVVVASAGGSA [r15_101_TrMRF]	3.73 ± 0.073	3.47 ± 0.099	3.63 ± 0.077
SAGGKPPKIVVKVEKAPNPETGTYTYKVVLYDPVTGKAYVKPVKTKTPEELEKKAKEVAEELAKELASAGGS [r8_480_TrMRF]	1.34 ± 0.12	0.727 ± 0.025	1.17 ± 0.084
